B1: Mortality factor 4-like protein 1 (Homo sapiens), Q9UBU8-2 (parent)
chain: MAPKQDPKPKFQEGERVLCFHGPLLYEAKCVKVAIKDKQVKYFIHYSGWNKNWDEWVPESRVLKYVDTNLQKQRELQKANQEQYAEGKMRGAAPGKKTSGLQQKNVEVKTKKNKQKTPGNGDGGSTSETPQPPRKKRARVDPTVENEETFMNRVEVKVKIPEELKPWLVDDWDLITRQKQLFYLPAKKNVDSILEDYANYKKSRGNTDNKEYAVNEVVAGIKEYFNVMLGTQLLYKFERPQYAEILADHPDAPMSQVYGAPHLLRLFVRIGAMLAYTPLDEKSLALLLNYLHDFLKYLAKNSATLFSASDYEVAPPEYHRKAV
B2: PHD finger protein 12 (Homo sapiens), Q96QT6 (parent)
chain: MWEKMETKTIVYDLDTSGGLMEQIQALLAPPKTDEAEKRSRKPEKEPRRSGRATNHDSCDSCKEGGDLLCCDHCPAAFHLQCCNPPLSEEMLPPGEWMCHRCTVRRKKREQKKELGHVNGLVDKSGKRTTSPSSDTDLLDRSASKTELKAIAHARILERRASRPGTPTSSASTETPTSEQNDVDEDIIDVDEEPVAAEPDYVQPQLRRPFELLIAAAMERNPTQFQLPNELTCTTALPGSSKRRRKEETTGKNVKKTQHELDHNGLVPLPVKVCFTCNRSCRVAPLIQCDYCPLLFHMDCLEPPLTAMPLGRWMCPNHIEHVVLNQKNMTLSNRCQVFDRFQDTVSQHVVKVDFLNRIHKKHPPNRRVLQSVKRRSLKVPDAIKSQYQFPPPLIAPAAIRDGELICNGIPEESQMHLLNSEHLATQAEQQEWLCSVVALQCSILKHLSAKQMPSHWDSEQTEKADIKPVIVTDSSVTTSLQTADKTPTPSHYPLSCPSGISTQNSLSCSPPHQSPALEDIGCSSCAEKSKKTPCGTANGPVNTEVKANGPHLYSSPTDSTDPRRLPGANTPLPGLSHRQGWPRPLTPPAAGGLQNHTVGIIVKTENATGPSSCPQRSLVPVPSLPPSIPSSCASIENTSTLQRKTVQSQIGPPLTDSRPLGSPPNATRVLTPPQAAGDGILATTANQRFSSPAPSSDGKVSPGTLSIGSALTVPSFPANSTAMVDLTNSLRAFMDVNGEIEINMLDEKLIKFLALQRIHQLFPSRVQPSPGSVGTHQLASGGHHIEVQRKEVQARAVFYPLLGLGGAVNMCYRTLYIGTGADMDVCLTNYGHCNYVSGKHACIFYDENTKHYELLNYSEHGTTVDNVLYSCDFSEKTPPTPPSSIVAKVQSVIRRRRHQKQDEEPSEEAAMMSSQAQGPQRRPCNCKASSSSLIGGSGAGWEGTALLHHGSYIKLGCLQFVFSITEFATKQPKGDASLLQDGVLAEKLSLKPHQGPVLRSNSVP
B3: PHD finger protein 12 (Mus musculus), Q5SPL2 (parent)
chain: MWEKMETKTIVYDLDTSGGLMEQIQALLAPPKTDEAEKRSRKPEKESRRSGRATNHDSCDSCKEGGDLLCCDHCPAAFHLQCCNPPLSEEMLPPGEWMCHRCTVRRKKREQKKELGHVNGLVDKSSKRTTSPSSDTDLLDRPASKTELKAIAHARILERRASRPGTPTSNASTETPTSEHNDVDEDIVDVDEEPVAAEPDYVQPQLRRPFELLIAAAMERNPTQFQLPNELTCTTALPGSSKRRRKEETTGKNVKRTQHELDHNGLVPLPVKVCFTCNRSCRVAPLIQCDYCPLLFHMDCLEPPLTAMPLGRWMCPNHIEHVVLNQKNLTLSNRCQVFDRFQDTISQHVVKVDFLNRIHKKHPPNRRVLQSVKRRSLKVPDAIKSQYQFPPPLIAPAAIRDGELICSGVPEESQTHLLNSEHLATQAEQQEWLCSVVALQCSILKHLSAKQMPSPWDSEQTEKADIKPVIVTDSSITTSLQTADKAPLPSHYPLSCPSAVSTQNSLGCSPPHQPPTLEDISCSSCVEKSKKAPCGTANGPVNTEIKANGPHLYSSPTDSTDPRRLPGANTPLPGLTHRQGWPRPLTPPSAGGLQNHVGIIVKTENATGPSSCPQRSLVPVPSLPPSIPSSCASIENTSTLHRKTVQSQIGPSSTESRPLGSPPNATRVLTPPQAAGDSILATGANQRFCSPAPSSDGKVSPGTLSIGSALTVPSFPANSTAMVDLTNSLRAFMDVNGEIEINMLDEKLIKFLALQRVHQLFPSRVQASPGNVGTHPLASGGHHPEVQRKEVQARAVFCPLLGLGGAVNMCYRTLYIGTGADMDVCLTNYGHCNYVSGKHACIFYDENTKHYELLNYSEHGTTVDNVLYSCDFSEKTPPTPPSSIVAKVQSVIRRRRHQKQDEEPSEEAAMMSSQAQGPQRRPCNCKASSSSLIGGSGAGWEGTALLHHGSYIKLGCLQFVFSITEFATKQPKGDASLLQDGVLAEKLSLKPHQGPVLRSNSVP

Variants of: B1
Conditions: with phf12_human PHF12, Q96QT6

Row | Variant | effect of a mutation on the interaction
1 | W172A | decreasing interaction
2 | Y235A | disrupting interaction
3 | L287A | decreasing interaction
4 | M228A | decreasing interaction
5 | V268A | decreasing interaction
6 | V227A | decreasing interaction

Variants of: B1
Conditions: with phf12_mouse Phf12, Q5SPL2

Row | Variant | effect of a mutation on the interaction
7 | L287A | decreasing interaction
8 | V227A | decreasing interaction
9 | L168A | decreasing interaction

Variants of: B2
Conditions: with MORF4L1, Q9UBU8-2

Row | Variant | effect of a mutation on the interaction
10 | L213A | decreasing interaction
11 | P228A | decreasing interaction
12 | F210A | decreasing interaction
13 | N221E | decreasing interaction
14 | F225A | decreasing interaction
15 | L227A | decreasing interaction

Variants of: B3
Conditions: with MORF4L1, Q9UBU8-2

Row | Variant | effect of a mutation on the interaction
16 | P228A | decreasing interaction
17 | F225A | disrupting interaction strength
18 | L213A | disrupting interaction
19 | L227A | disrupting interaction
20 | F210A | disrupting interaction
